From article PMC9330763

Target: SAd36 fiber-T4 fibritin-SpT (simian (chimpanzee) adenovirus species E serotype 36 (SAd36) | bacteriophage T4)
Experiment: SDS-PAGE without boiling

Question: Which stoichiometry N does the source give for SAd36 fiber-T4 fibritin-SpT here?
Answer: Its stoichiometry N is 3.
